The nature of this data set: protease stability score; higher = more stable; yeast display proteolysis, trypsin and chymotrypsin.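 Note: relative to predicted unfolded state with 0 unfolded-like and 1 meaning tenfold more protease.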
Regarding “DEMREEVETILKLMEEWEKTGDFETILTYLDPNARLHENINGRELHSHGREFIHWAYEFFKNLRIETVQEDEVHIFENHFQIRVTLKGTINGRHYIFHRIIIINAIDGRIRHEVILYK”, the protease stability score amounted to 1.53.
As for “DEMRKYAHEYFKLLIELLLTGDEDSMLHNIDPNVRFDEHAENHRVHIHGMESLREWLDHFLKHAWITHIHESDSRVFNGRMHLIGHTRIYIDGKLEIKEIRIEFIVINGRITHYRVEVN”, the protease stability score was found to be 1.52.
In the case of “DEMRRDVDETLKELLEAWETGDEEKVSHLMDPNVRIHIGDKTLVGRELVREEVRHLRYHDYDVHHIRVIGEKADIDGVLDGNVNGRRENRKIHLHLLKVDGRWFFEETRFE” it was -0.004; in that of “DEMTEDSERAMEILVRSILTGDEKDLIELADPNVRLDVNGRDYHGWKNFIKVFKKIMDELRIKDTELKDVRNQGEKAILDTRIHGIINGREIIFESSIDHRKINGVWLIERIIIK”, 1.1.
Sequence “DEMTHEIKRFLKEILRSSRTGDEHTDKHLMDPNVKIHYGEFHFHGREQAANFLSELRIHHVHIRDVDVQGDKATIDTEMDVEYNGQRYIFDVTLIMQKIDGRWLIKKVRYE” came in with a protease stability score of 1.3.
Regarding “DENDTARKIIKTLLDIMREGDEDKLRDQMDPNVRADVGDKTVHGREHAAKFLAHIVKRADHISITLKSLHNHNGRLRMQAEVRIVHNGRTERVTLEMVFRDHNGKLLIERMKYG”, the protease stability score was 2.36.
Take “DENEDRIRHLLELHFHALETGDEKKTHDLFDPNTRVEVGDKTLHGRELVSKHVAEDLIKIKGLTVRIRDWNIVGDKVVVDSRVEFNGVRVETILVALKVDGRWLVKSIHIH”: the protease stability score was found to be 0.42.
As for “DENEEDSKRAVELIEDSMKTGDEELMTKQMDPNVRVDYNGKEHHGWEHAKRWFHLMGVDHLHLHRVRLINGVVHLDVDSRINGREFKVHITALKVDGQWVLKEISIR”, the protease stability score came to 1.26.
Regarding “DENEELLTDMIRLLKNVLETGDEEHFHRLADPHVRFKIGDKIFHGREEATRIFSEVMERFKNVRLRLEHIEIIGDKITIHTRIDVGDKSYEMHIHARKVNGKWIMETLFIR”, the protease stability score worked out at 1.17.
In the case of “DENEEQLEDSVRMYIEAVQTGDEDSLRKLMDPHWRLEYGDKELHGRWALEVRHKFFKGMRIHHIEVHSVEIQGDKAKIIIHVLMEFDGRRLHIKTEVTVQKINGRWFNHSEKIN”, the protease stability score amounted to 1.14.
As to “DENEETMRHYFELLVRNLRTGDWHSLTRLMDPHVRLEYNGREFHGMEEVIRFLLHIRLRHLHLERVEIQGDKVRMHVSVDGEVNGRREEWDVELIARKIDGRWIQTSEIYR”, the protease stability score came to 0.212.
Regarding “DENEHIAREFLRQFLRQVETGDEYRLMELMDPNARINFDGKDLHGRDEWIRKIREIRFDQTHIHDVRIQGNKMEVDTRWDGEINGVRTIFDVHMDIRKVDGKWIIKVINIH”, the protease stability score is 1.66.
“DENEHQTRIWNEIFIKIFLTGDWKRLSDMADPHVRSIINGQDLHGMENLSKIVEEIREELRVRSVHLHDIKVINGVAKVDTRLDMEYGDKRTDYNIEIHTLKVDGRWHLKEIKLV” showed a protease stability score of 0.292.
“DENEQEARKAIEELIHNRETGDEQRMSELLDPHTRIDYNGVEVHGRHYLLKLLRRIDHSRFNLRRLDIQGEKIIMEGELELDVNGVKIRIKLTEIILKVNGRWILHSSRIE” yielded a protease stability score of 1.95.
Take “DENERRYNELSRLLFEWFLTGDEKMLSNFMDPNAKAEVNGKEEHGREELIRIYHDWLRKAGVDHIQPRHLETRHFDGRVHVHINVDVLINGKILHIHIDIDMVKIDGKWIIKHIRIHER”: the protease stability score was 1.2.
The sequence “DENETALREVIKRYFKAILTGDEHELENLLDPNVRVEINGVKLHGMRDYLEWIREWRIKDMRIRIEHVEVIGNKMIIDSRLRVNETVNGVTRDREKKLHLIVTKINGRWHIEEINEE” returned a protease stability score of 2.16.
In the case of “DENHEIVKRALEIIVVALLTGDFDTLTELFDPEVRIQVGDKHLHGREDFWKWLKELITRADHNDFKVESIEVQGDKMVIDGEMIIHYNGREHRYKTEVIILKIDGRWVVKRIHYE” it was 1.65; in that of “DENHEVAEYILKILVESLETGNEELFKRLIDPNVRIEINGVEVHGWQFWIDHIDELRIRRVEAILRDAREYNGRIDMDTELKMDGEIDGVRTETSRRVRMVLEKVNGRWYVREIRIE”, 2.39.
Regarding “DENHRHASELIEIFRHALATGDWETLYRLMDPHTRVLINGKDLHGMEEHLTFLLEEHERLGIENIDVRVRIDHREVQGDKIIIHITIHLNFNGREIYFESRIIVSKFNGRWSIESLEIR”, the protease stability score was 1.42.
The sequence “DENKETIDRVYRLLDEALKTGDFEIFAYLMDPHVRNDVDGVDIVGRDLVKKVLEDIIRDLGFKHETLKVHDWRSINGRVHIDTEVELDVNGVDLRKRTIIIALKINGKWRITEIVFE” yielded a protease stability score of 2.33.
“DENKKAFEEAVSWFRHTSETGDEELFNDLVDPDTRTNYNGVSYHGWKEYEEYLRLIRELLGIKVVKHVHIHSVDVQGDFIHMDVELNLHYNGRERIERSHIRAFKVNGRWRMKSMIVV”: the protease stability score was 0.362.
In turn, “DENRELMERIARLVLHWLHTGDEHFIERLVDPHARVQQGDKEDHGMDRVVEMWNELRVHHVELRHLEVFENHATIHGEIDGEINGQRVRLDFHIHIHIVDGRMETIHVHFR” showed a protease stability score of 2.1.
In turn, “DENRKFARVMTELILHSWYTGDWELDVKLADPNVLNDFNGKEIHGMENVSRQFIEMRIDDVRIRDLRIEVYGEKLISKIDGERNGHFDGRTVDTRMHLELIMEKINGRWIIREIRIEVK” returned a protease stability score of 2.59.
In the case of “DENRQDLEHFHKVLLKLLETGDENMIARLADPNVREDVNGVDNHGMKDLERTLREIHERVDHIHHVHIHRVDVINGRAHLDGTLRGHVNGVSFQHRETVIYLKFNGRWVLHSVHLK” it was 1.2.
As for “DENRRHELEIAQILLHAWVTGDEHILRRFADPDMQFVLEFDGKTIDLHGRELVISFFRDLVDKLGVDHITLESHRVINGRTHIDTRVIFNGVDREEKIHIHIVNGRLKHLELRVH”, the figure is 1.22; as for “DENSHALEIAFRLFLEYYYTGDPDEMVELADPRTRLFVGEYDSHGREQFETLLREEFKRLGIDVQHITEWEIHVQGDKVILHVRVHEVFNGKETETEIHITMHKIDGRWLISSQKRRIV”, 0.626.
Sequence “DENTENEHNIAEVIIEAFETGDWEMLWRMADPNTLLEIIIGDKRMEIHGMHIFVKYWVEFQDRFKNVRISLKSYHVYDGRIELHMNLNFNGRRVEEEVLIYFINGRVKRIHIRHH” displayed a protease stability score of 2.8.
As for “DENTESVHWLIRVLIQSARTGDEDSMRHLFDPNTKLNINGQEIHGREVAEEWANRVDHIEHVELHRIRNIDGQLDVEGKMRGTVNGKRDENRIELIIIKVDGQWFLRSIRIE”, the figure is 1.57; as for “DENTRLRREAFRIERKTWKTGDERLLEENADPDAKYDVDGKDLHGWREVVHFLDDFLKRFGFDHFEVKEIRVQGEKIIIDGRVEVNGRVFETRVIFTKFDGQWSVQSLQMR”, 0.444.
Consider “DEQEDRDMKKMYKNLQEGDDQRVADMADPNARWRVGDKTYHGKDSIRHWAKEVHDRMHFRIQSITVQNENGKVKVEIKWVTDENGKPVDQTVQVKAELHNGHIVDIDITTQS”, for which the protease stability score was 0.098.
Sequence “DEQEEDDREAVKHALEVWETGDERVLWELFDPHVRIIVGDKHVHGREHFLRLTHELKRKVKGIRFDIRHVNLYDGRIEMDTDLEVDGRKHKTTIIAKKVNGRWILESIEIR” displayed a protease stability score of 1.45.
“DEQEEFSHRIMRLLIDLWHTGDWTLIEQYLDPNVRFEVGDKRHHGRESAVKALLELHRRLGVKHFDVKDKDQQGEKLVVVLEDRAENHHMEHELIVVKIDGRWTNHSIISRIH” registered a protease stability score of 1.01.
“DEQEEHLHEMVRRFLHHFLTGDWKTLHRMFDPNARYHINGQDHVGREEINRFWREHWEHARIHDLRIKSVELFENRSHIIGHLDGNIDGKEVRTDVEIILVIVNGRVRYIEVRQH” had a protease stability score of 1.52.
In the case of “DEQEEHVEKLVHLLLRRFKTGDEEFWRRLADPRTRLHVGDKHHHGRETFMKVFRHLIEDLGIDHRIEKHFEVINGVLHIHQIIVVDGQEFELRIHVFVVDGKVKSIDVSIHTR” it was 0.896; in that of “DEQEEKLERMYKLWLELHRTGDEEILTELIDPTARLEVGDKSFHGREILIEWFHRELKRIDHKEVRERHIEIQGEWLHAEIEVIIIVNGREIRITTELIIVTINGKIKSINIKIR”, 2.23.
“DEQEELSQLLAEIVIELTKTGDEHTLERLMDPHVRANINGVELHGRKKVREFLEEWLRRVKNVRLHIDDRTVQGEKIIVDGTWNVGDKSFRIEFIVIIINGRHTSFNVLDI” came in with a protease stability score of 1.51.
Consider “DEQEESSRIIHKLIEHVAETGDWREWRKLLDPNTRLDVNGKEFHGWEKLLEHLEEHLDLLGVTKFTLRIQIRSMETQGNYVFIVGITHIHQGDKEIHRFTELIVLKINGKWLMKEIRFR”, for which the protease stability score was found to be 1.37.
As to “DEQEESTRIAMELVLRSLKTGDERTVSELVDPNVRYEQGDKEYHGWESASEVVRRLGVDHFIIHDIKIQGNKLHLHGELVVGDYTLKYHIIVLKVNGRWQITRMHTI”, the protease stability score amounted to 1.2.
Take “DEQEHVAERIVNDLNHSMETGDEHRIRELVDPHVRVIIGDKELHGMEEFIRWLREFGVERIRVRLKRFSFVGNKIRLDTVMNINGQNVDTKLIIEKVDGRWLLRSIHVD”: the protease stability score was 2.18.
“DEQEKEAKRVVEEILEILLTGDFESFLRNADPNVRIIIGDKDYWGREHTKRLLTDWRREMRVKHIDVRDIEVQGNKVKLHLESDLEINGRRTRTEMEIIVVTFNGRFESLEIRTV”: the protease stability score came out at 1.75.
As to “DEQEKELEEFLKLLLYAIWTGDEDTITELADPNVRMHIGDKLNHGWEILSDRLTEIRSDIHDFKLRHIETIGNKMTLFGDLNGQINVGDKEKRTIIHMILHVHKIDGRWLLTHIHFD”, the protease stability score is 0.265.
As for “DEQEKFSKEMARLFIELRLTGDWETFTHLADPDVLWEIHVDGQSERNIGWESVRHAMEKERHELRIEHIHIRDVKIQGNKIHINTEVVGQFNGRRFIVDSRIHIHIVNGRIKDVTIEIE”, the figure is 1.16.
As for “DEQEKHLKKISEDLLRIWLTGDEDTFREMADPDMRFIDEDHELHGREELIRMMREFWHKFKNARIEIHHVEVIGEYNNVDIRLSVDGRVVDVKLHFLIVNGRLKKVEVRER”, the figure is 2.07.
For the sequence “DEQEQHAFKFFEHHTEILKTGDWEEVRKNLDPHVRLHVNGVEMHGMEHATELALKEDTEIRSELRLEDVDVQGDKVRFDIRLIYHIGDKTIVHKIDLVMIKINGRWLVHSIHVE”, the protease stability score came out at 0.36.
“DEQERAQEALRRFLRVFQEGDPDRARQQADKDVQMVVGDKEYEGREQVSRAIESLRERVDEFHITVRRITVSGNRVVVDAKLKLNINGKEDDVTLKLVIDVSGDKISIKRVEVR”: the protease stability score worked out at 1.16.
In the case of “DEQERAYELALRTIEHDLRTGDEKSLQENADPNTRLLVGDKELVGWELFIKLMREIRIRHIEVRHMEVQGNKLIFDGKVDGEIGDKRVEYETEIILEKVDGQWRIKEKRLH” it was 0.862; in that of “DEQERHAEEFVREHMNAWVTGDWEMLIRQLDPNTRFIQGDKRHHGREALHYMRERVDHIKSVHIDRVDVYNGRVIIDIELIGLIDGRDVTFHVHIITKKIDGRWIVHELRHE”, 0.82.

The values are drawn from the NTF2 design screens of Basanta et al. (2020).
